In US20260265385A1 (ANAPTYSBIO, published 2026):
Positions count from the first letter of the chain named.

T1: human IL-2Rβ (CD122), full-length, on cells (human, UniProt P14784 27-551)
T1 construct: whole, on cells; also called human IL-2Rβγ; human IL-2βγ
T1 sequence (looked up): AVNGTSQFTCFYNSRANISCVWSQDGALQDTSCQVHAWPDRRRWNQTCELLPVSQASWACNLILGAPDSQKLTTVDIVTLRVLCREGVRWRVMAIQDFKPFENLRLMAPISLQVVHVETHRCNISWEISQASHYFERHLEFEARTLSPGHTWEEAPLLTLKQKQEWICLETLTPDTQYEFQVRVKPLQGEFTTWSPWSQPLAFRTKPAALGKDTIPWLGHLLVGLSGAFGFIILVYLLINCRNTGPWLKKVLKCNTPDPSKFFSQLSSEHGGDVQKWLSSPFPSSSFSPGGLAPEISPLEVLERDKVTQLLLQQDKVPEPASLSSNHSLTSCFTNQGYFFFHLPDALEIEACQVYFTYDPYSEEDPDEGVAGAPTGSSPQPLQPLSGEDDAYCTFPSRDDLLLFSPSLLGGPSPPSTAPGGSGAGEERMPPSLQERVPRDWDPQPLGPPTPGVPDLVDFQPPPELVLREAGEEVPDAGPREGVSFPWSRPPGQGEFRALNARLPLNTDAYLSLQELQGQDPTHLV

T2: recombinant cynomolgus IL-2Rβ (extracellular domain, Ala1-Thr215) (cynomolgus, UniProt Q38J85 27-240)
T2 construct: extracellular domain; Analyte in SPR; also called cynomolgus LL-2Rβ; Cyno IL-2RB
T2 sequence (looked up): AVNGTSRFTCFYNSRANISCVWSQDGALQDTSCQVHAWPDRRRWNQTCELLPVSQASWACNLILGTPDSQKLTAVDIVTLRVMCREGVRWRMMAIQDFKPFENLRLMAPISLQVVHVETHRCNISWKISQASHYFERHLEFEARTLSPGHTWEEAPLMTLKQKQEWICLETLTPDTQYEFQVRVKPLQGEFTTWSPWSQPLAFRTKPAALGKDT

T3: recombinant human IL-2Rβ (extracellular domain, Ala1-Thr215) (human, UniProt P14784 27-240)
T3 construct: extracellular domain; Analyte in SPR; Ala1-Thr215 is counted on the mature protein; also called human LL-2Rβ; Human IL-2RB
T3 sequence (looked up): T2 sequence (looked up) with R7Q, T66A, A74T, M83L, M92V, K127E, M158L

T4: cynomolgus IL-2Rβ (CD122), full-length, on cells (cynomolgus, UniProt Q38J85 27-551)
T4 construct: whole, on cells; Co-expressed with full-length cynomolgus IL-2Rγ on CHO-K1 cells; also called cynomolgus IL-2Rβγ; cyno IL-2βγ
T4 sequence (looked up): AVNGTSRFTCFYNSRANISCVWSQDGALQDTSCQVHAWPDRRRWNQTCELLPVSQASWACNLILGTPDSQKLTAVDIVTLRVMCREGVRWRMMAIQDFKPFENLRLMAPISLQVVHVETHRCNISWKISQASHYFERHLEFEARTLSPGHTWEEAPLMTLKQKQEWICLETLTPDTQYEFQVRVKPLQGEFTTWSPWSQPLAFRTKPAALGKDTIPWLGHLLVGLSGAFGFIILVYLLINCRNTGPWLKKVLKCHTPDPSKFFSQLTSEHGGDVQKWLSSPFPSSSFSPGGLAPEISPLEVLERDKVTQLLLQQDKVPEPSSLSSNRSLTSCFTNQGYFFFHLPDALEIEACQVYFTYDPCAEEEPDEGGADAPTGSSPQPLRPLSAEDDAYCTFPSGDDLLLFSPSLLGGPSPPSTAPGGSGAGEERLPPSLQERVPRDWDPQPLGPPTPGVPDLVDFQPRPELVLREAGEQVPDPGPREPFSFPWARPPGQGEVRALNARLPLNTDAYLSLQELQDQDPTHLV

B1: APE12383 (antibody, V domains shown)
VH: QVQLQQSGAELMKPGASVKISCKSTGYTFSRYWIEWVKQRPGHGLEWIGEILPGSGSINHNEKFQGKATFTADTSSNTVYMQLSSLTSEDSAVYFCTRHYGSFDYWGQGTTLTVSS
VL: EIVMTQSPKFMSTSVGDRVSVTCKASQNVGTDVAWYQQKPGQSPKALIYSASYRYNGVPDRFTGSGSGTDFTLTISNVQSEDLAEYFCHQYSSYPFTFGSGTKLEIKR
notes: M6-p1625 series; human kappa detected by the secondary antibody; also called APE 12383.03; M6-p1625
B2: APE12705 (antibody, V domains shown)
VH: DVQLQQSGAELARPGASVKLSCTVSGFNFKDSLMHWVTQGPERGLRWIGWIDSENGETEYAPGFQDKATITADTSSSTVYLHLSSLTSEDTAIYYCARGGPWFLSYWGPGTTLTVSS
VL: DIVLTQTPATLSVTPGDSVSLSCRASQIISNNLHWYQQKSHESPRLLIIYGLQSISGIPYRFSGRRSGTDFTLNINSVEIEDFGMYFCQQSNNWPWTFGGGTKLDIRR
notes: M10-1275 series; human kappa detected by the secondary antibody; also called APE 12705.02; M10-1275
B3: APE15148 (antibody, V domains shown)
VH: QVQLVQSGAEVKKPGASVKVSCKASGYTFSRYWIQWVRQAPGQGLEWMGEILPGSGSINHNEKFQGRVTMTRDTSTSTVYMELSSLRSEDTAVYYCTRHYGSFDYWGQGTTVTVSS
VL: DIQMTQSPSSLSASVGDRVTITCKASQNVGTDVAWYQQKPGKAPKSLIYSASYRYSGVPSRFSGSGSGTDFTLTISSLQPEDFATYFCHQYESYPFTFGQGTKLEIKR
notes: M6-p1625 series
B4: APE15295 (antibody)
heavy: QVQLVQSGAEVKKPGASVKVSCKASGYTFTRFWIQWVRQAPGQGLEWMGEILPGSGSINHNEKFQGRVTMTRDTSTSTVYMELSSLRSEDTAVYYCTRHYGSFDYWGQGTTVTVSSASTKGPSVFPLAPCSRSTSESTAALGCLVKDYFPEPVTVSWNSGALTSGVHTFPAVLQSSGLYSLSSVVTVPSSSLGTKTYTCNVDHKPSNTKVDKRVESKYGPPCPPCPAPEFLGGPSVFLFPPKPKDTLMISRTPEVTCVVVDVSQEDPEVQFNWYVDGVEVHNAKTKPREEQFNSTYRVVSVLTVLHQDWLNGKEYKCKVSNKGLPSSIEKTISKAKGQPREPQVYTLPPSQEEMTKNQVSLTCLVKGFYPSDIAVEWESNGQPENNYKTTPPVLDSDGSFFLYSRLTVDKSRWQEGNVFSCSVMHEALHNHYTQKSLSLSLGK
light: DIQMTQSPSSLSASVGDRVTITCKASQNVGTDVAWYQQKPGKAPKSLIYSASYRYSGVPSRFSGSGSGTDFTLTISSLQPEDFATYFCHQYESYPFTFGQGTKLEIKRTVAAPSVFIFPPSDEQLKSGTASVVCLLNNFYPREAKVQWKVDNALQSGNSQESVTEQDSKDSTYSLSSTLTLSKADYEKHKVYACEVTHQGLSSPVTKSFNRGEC
notes: M6-p1625 series
B5: APE15140 (antibody, V domains shown)
VH: EVQLVQSGAEVKKPGATVKISCKVSGFNFKESLIHWVQQAPGKGLEWMGWIDNEAGETEYAPGFQDRVTITADTSTDTAYMELSSLRSEDTAVYYCARGGPWFLSYWGQGTTVTVSS
VL: EIVMTQSPATLSVSPGERATLSCRASQIISNNLHWYQQKPGQAPRLLIIYGLQSISGIPARFSGSRSGTEFTLTISSLQSEDFAVYYCQQSNNWPWTFGQGTKLEIKR
notes: M10-1275 series
B6: APE15169 (antibody, V domains shown)
VH: B5 VH
VL: B5 VL with Y87F, W96Y
notes: M10-1275 series
B7: APE15170 (antibody)
heavy: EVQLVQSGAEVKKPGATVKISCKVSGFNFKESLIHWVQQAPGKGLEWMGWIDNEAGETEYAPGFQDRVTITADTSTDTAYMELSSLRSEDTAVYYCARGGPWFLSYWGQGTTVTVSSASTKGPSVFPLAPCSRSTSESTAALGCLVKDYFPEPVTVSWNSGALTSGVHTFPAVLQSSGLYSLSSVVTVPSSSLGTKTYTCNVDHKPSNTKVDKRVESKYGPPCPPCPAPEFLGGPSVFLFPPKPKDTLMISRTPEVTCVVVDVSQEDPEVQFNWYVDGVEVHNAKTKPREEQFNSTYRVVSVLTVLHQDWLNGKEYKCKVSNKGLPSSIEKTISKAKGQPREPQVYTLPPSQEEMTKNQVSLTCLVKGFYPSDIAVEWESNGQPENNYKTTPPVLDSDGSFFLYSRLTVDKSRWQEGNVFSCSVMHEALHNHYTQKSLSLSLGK
light: EIVMTQSPATLSVSPGERATLSCRASQIISNNLHWYQQKPGQAPRLLIIYGLQSISGIPARFSGSRSGTEFTLTISSLQSEDFAVYFCQQSNNFPWTFGQGTKLEIKRTVAAPSVFIFPPSDEQLKSGTASVVCLLNNFYPREAKVQWKVDNALQSGNSQESVTEQDSKDSTYSLSSTLTLSKADYEKHKVYACEVTHQGLSSPVTKSFNRGEC
notes: M10-1275 series
B8: APE15446 (antibody)
heavy: not shown
light: B7 light
notes: M10-1275 series
B9: APE15142 (antibody, V domains shown)
VH: B5 VH with E31Y
VL: B5 VL
notes: M10-1275 series

What follows are binders tested against T1, human IL-2Rβ (CD122), full-length, on … (assay: flow cytometry on CHO-K1 cells expressing human IL-2Rβ and IL-2Rγ).
Experimental: (§1) CHO-K1 cells stably expressing full-length human or cynomolgus IL-2Rβ and IL-2Rγ cultured in the log phase of growth were harvested with Accutase solution, resuspended in FACS buffer, and plated at 100,000 cells/well in a 96-well plate. The concentrations of antibodies indicated in FIGS. 1 and 2 starting at 100 nM and diluted 1:3 were incubated with the cells for 45 minutes on a plate shaker at 4° C. After washing, the cells were incubated with goat-anti-human kappa DyL650 secondary antibody for 20 minutes on a plate shaker at 4° C. Cells were washed again and analyzed on a FACSArray flow cytometer. Data were analyzed using Novoexpress and GraphPad Prism software. Table 3 lists anti-CD122 chimeric antibody binding characteristics: affinity to human and cyno CD122 protein (KD, measured by SPR assay), ability to block IL-2 (SPR assay), and binding EC50 to cell-expressed human and cyno CD122/CD132 (cell-based receptor binding assay).

EC50 | Binder
0.142 nM | B1
0.174 nM | B2

These binders were tested against T2, recombinant cynomolgus IL-2Rβ … (assay: SPR, antibody captured on Protein A chip).
How it was run: (§2)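 Antibodies captured on a Protein A chip (0.5 μg/mL, 60 s), then exposed to IL-2Rβ extracellular domain (Ala1-Thr215) at about 0.4–11 nM; 300 s association, 1200 s dissociation. On- and off-rates and KD from a global 1:1 binding fit.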

Kd | Binder
0.0715 nM | B3
0.26 nM | B1
0.0707 nM | B4
0.0102 nM | B5
0.0144 nM | B6
0.00487 nM | B7
0.00415 nM | B8
0.0105 nM | B9
0.02 nM | B2

The binders below were run against T3, recombinant human IL-2Rβ (extracellular …) (assay: SPR, antibody captured on Protein A chip).
How it was run: as §2

Kd | Binder
0.0945 nM | B3
0.34 nM | B1
0.0557 nM | B4
0.0217 nM | B5
0.0995 nM | B6
0.0128 nM | B7
0.0107 nM | B8
0.0222 nM | B9
0.08 nM | B2

The binders below were run against T1, human IL-2Rβ (CD122), full-length, on … (assay: flow cytometry competition: antibody titrated against recombinant IL-2 (5 nM) binding to HEK293 cells expressing human IL-2Rβ and IL-2Rγ).
Experimental: (§3) HEK293 cells stably transfected with human IL-2Rβ and IL-2Rγ were plated at 100,000 cells/well in a 96 well plate. Antibodies were titrated at the concentrations indicated in FIG. 8 starting at 100 nM and diluted 1:3, and added to the cells. Recombinant IL-2 (5 nM) or recombinant IL-15 (2 nM) were also added to the cells. Cells were incubated for 30 minutes on a plate shaker at 4° C. Cells were washed and then analyzed on a flow cytometer, and data were analyzed using Novoexpress and GraphPad Prism software.

IC50 (read off the curve) | Binder
~0.08 nM | B4
~0.4 nM | B7

Each binder was assayed against T1, human IL-2Rβ (CD122), full-length, on … (assay: flow cytometry on CHO-K1 cells expressing human IL-2Rβ and IL-2Rγ (panel 'Cell Binding human IL-2Rbg CHO'); unit taken from the axis 'Antibody Concentration nM').
Experimental: (§4) CHO-K1 cells stably expressing either full-length human or cyno IL-2Rβ and IL-2Rγ cultured in the log phase of growth were harvested with Accutase solution, resuspended in FACS buffer, and plated at 100,000 cells/well in a 96 well plate. The concentrations indicated in FIG. 5 of antibodies starting at 100 nM and diluted 1:3 were incubated with the cells for 45 minutes on a plate shaker at4° C. After washing, cells were incubated with goat anti-human kappa DyL650 secondary antibody for 20 minutes on a plate shaker at4° C. Cells were washed again and analyzed on a FACSArray flow cytometer. Data were analyzed using Novoexpress and GraphPad Prism software.

EC50 | Binder
0.105 nM | B3
0.138 nM | B5
0.308 nM | B6
0.139 nM | B7
0.147 nM | B9

Each binder was assayed against T4, cynomolgus IL-2Rβ (CD122), full-length, … (assay: flow cytometry on CHO-K1 cells expressing cynomolgus IL-2Rβ and IL-2Rγ).
Experimental: as §1

EC50 | Binder
0.147 nM | B1
0.0876 nM | B2

These binders were tested against T2, recombinant cynomolgus IL-2Rβ … (assay: SPR).

Kd | Binder
~0.26 nM | B1
~0.02 nM | B2

The binders below were run against T3, recombinant human IL-2Rβ (extracellular …) (assay: SPR).

Kd | Binder
~0.34 nM | B1
~0.08 nM | B2

These binders were tested against T4, cynomolgus IL-2Rβ (CD122), full-length, … (assay: flow cytometry on CHO-K1 cells expressing cynomolgus IL-2Rβ and IL-2Rγ (panel 'Cell Binding cyno IL-2Rbg CHO'); unit taken from the axis 'Antibody Concentration nM').
Experimental: as §4

EC50 | Binder
0.103 nM | B3
0.18 nM | B5
0.333 nM | B6
0.146 nM | B7
0.163 nM | B9

The binders below were run against T1, human IL-2Rβ (CD122), full-length, on … (assay: flow cytometry competition: antibody titrated against recombinant IL-15 (2 nM) binding to HEK293 cells expressing human IL-2Rβ and IL-2Rγ).
Experimental: as §3

IC50 (read off the curve) | Binder
~0.05 nM | B4
~0.4 nM | B7
